For assay [1], the target named is α-casein.
Assay [2] addresses α-casein. The source holds these as a separate data set.

Read-outs that look alike come from different tables or passages of the source.

This note sets out measurements from patent US6100053A, “Microbial transglutaminases, their production and use” (priority 1994, dated 2000).

In the assay with α-casein [1], “TGase sample of Rothia dentocariosa (pool or library)” had a Units/ml (putrescine assay) of 0.9 units/ml.

In turn, “TGase sample of Bacteridium sp., CBS 495.74 (pool or library)” had a Units/ml (putrescine assay) with α-casein [1] of 0.5 units/ml.

For “TGase sample of Bacillus firmus, ATCC 17060 (pool or library)”, in the assay with α-casein [1], the Units/ml (putrescine assay) is 0.6 units/ml.

As to “TGase sample of Bacillus mycoides (pool or library)”, the Units/ml (putrescine assay) in the assay with α-casein [1] came to 0.4 units/ml.

As for “TGase sample of Kitasatao purpurea (pool or library)”, the Units/ml (putrescine assay) with α-casein [1] turned out to be 0.3 units/ml.

“TGase sample of Bacillus megaterium, AJ 3355 (pool or library)” showed a Units/ml (putrescine assay) with α-casein [1] of 0.03 units/ml.

Regarding “TGase sample of Zymomonas mobilis (pool or library)”, the Units/ml (putrescine assay) with α-casein [1] stood at 0.36 units/ml.

With “TGase sample of Pseudomonas putida, DSM 1693 (pool or library)”, the Units/ml (putrescine assay) with α-casein [1] was found to be 0.84 units/ml.

In the assay with α-casein [1], “TGase sample of Bacteridium sp., DSM 10093 (pool or library)” yielded a Units/ml (putrescine assay) of 0.3 units/ml.

Substance “TGase sample of Streptomyces sioyaensis (pool or library)” gave a Units/ml (putrescine assay) with α-casein [1] of 3.3 units/ml.

“TGase sample of Pseudomonas putida, NCIMB 9869 (pool or library)”: the Units/ml (putrescine assay) with α-casein [1] amounted to 1.4 units/ml.

“TGase sample of Bacillus aneurinolyticus (pool or library)”: the Units/ml (putrescine assay) with α-casein [1] was 0.8 units/ml.

In the assay with α-casein [1], “TGase sample of Bacillus sp., ATCC 21537 (pool or library)” came in with a Units/ml (putrescine assay) of 0.1 units/ml.

In the assay with α-casein [1], “TGase sample of Hydrogenophaga palleroni (Basonym: Pseudomonas palleroni) (pool or library)” came in with a Units/ml (putrescine assay) of 0.6 units/ml.

“TGase sample of Bacillus megaterium, ATCC 13632 (pool or library)” returned a Units/ml (putrescine assay) with α-casein [1] of 0.02 units/ml.

On to “Ca2+-independent transglutaminase from Streptomyces platensis (enzyme)”, for which the Units/ml (putrescine assay) with α-casein [1] came to 1.4 units/ml.

Take “TGase sample of Bacillus badius (pool or library)”: the Units/ml (putrescine assay) in the assay with α-casein [1] was found to be 0.8 units/ml.

As for “TGase sample of B. amyloliquefaciens (pool or library)”, in the assay with α-casein [1], the Units/ml (putrescine assay) was 0.06 units/ml.

As for “transglutaminase preparation (culture broth) of Myrothecium roridum (pool or library)”, the Units/ml (putrescine assay) with α-casein [2] is 0.13 Units/ml.

For “transglutaminase preparation (culture broth) of Hygrophoropsis aurantiaca (pool or library)”, the Units/ml (putrescine assay) in the assay with α-casein [2] was determined as 0.17 Units/ml.

In the assay with α-casein [2], “transglutaminase preparation (culture broth) of Cladosporium sphaeospermum (pool or library)” returned a Units/ml (putrescine assay) of 1.07 Units/ml.

In the case of “transglutaminase from Streptomyces lydicus, NRRL B-3446 (former Streptomyces libani) (enzyme)”, the Units/ml (putrescine assay) with α-casein [1] was found to be 1.3 units/ml.

As to “TGase sample of Bacillus firmus, DSM 12 (pool or library)”, in the assay with α-casein [1], the Units/ml (putrescine assay) came out at 0.03 units/ml.

The substance “transglutaminase preparation (culture broth) of Valsa pini (pool or library)” had a Units/ml (putrescine assay) with α-casein [2] of 0.73 Units/ml.

Substance “transglutaminase preparation (culture broth) of Scytinostroma portentosum (pool or library)” displayed a Units/ml (putrescine assay) with α-casein [2] of 0.14 Units/ml.

With “transglutaminase preparation (culture broth) of Lignincola sp. (pool or library)”, the Units/ml (putrescine assay) with α-casein [2] amounted to 0.15 Units/ml.

In turn, “transglutaminase preparation (culture broth) of Cunninghamella elegans (pool or library)” gave a Units/ml (putrescine assay) with α-casein [2] of 0.23 Units/ml.

In the case of “transglutaminase preparation (culture broth) of Pleurotus dryinus (pool or library)”, in the assay with α-casein [2], the Units/ml (putrescine assay) worked out at 0.22 Units/ml.

In turn, “transglutaminase preparation (culture broth) of Stropharia coerulea (pool or library)” registered a Units/ml (putrescine assay) in the assay with α-casein [2] of 0.16 Units/ml.

For the substance “TGase sample of Hafnia alvei (pool or library)”, the Units/ml (putrescine assay) in the assay with α-casein [1] came to 0.3 units/ml.

On to “transglutaminase preparation (culture broth) of Mucor luteus (pool or library)”, for which the Units/ml (putrescine assay) with α-casein [2] amounted to 0.34 Units/ml.

Regarding “transglutaminase preparation (culture broth) of Cercospora traversiana (pool or library)”, the Units/ml (putrescine assay) in the assay with α-casein [2] was found to be 0.53 Units/ml.

With “TGase sample of Bacillus megaterium, ATCC 15450 (pool or library)”, the Units/ml (putrescine assay) with α-casein [1] came to 0.02 units/ml.

Regarding “transglutaminase preparation (culture broth) of Amanita virosa (pool or library)”, the Units/ml (putrescine assay) with α-casein [2] is 0.14 Units/ml.

With “transglutaminase preparation (culture broth) of Xylaria sp (pool or library)”, in the assay with α-casein [2], the Units/ml (putrescine assay) amounted to 0.28 Units/ml.

As for “transglutaminase preparation (culture broth) of Preussia isomera (pool or library)”, the Units/ml (putrescine assay) with α-casein [2] worked out at 0.22 Units/ml.

“transglutaminase preparation (culture broth) of Fusarium merismoides (pool or library)” returned a Units/ml (putrescine assay) in the assay with α-casein [2] of 0.16 Units/ml.

In the assay with α-casein [2], “transglutaminase preparation (culture broth) of Beauveria calendonica (pool or library)” yielded a Units/ml (putrescine assay) of 0.25 Units/ml.

Take “transglutaminase preparation (culture broth) of Cercospora fusimaculans (pool or library)”: in the assay with α-casein [2], the Units/ml (putrescine assay) was found to be 1.3 Units/ml.

In the assay with α-casein [2], “transglutaminase preparation (culture broth) of Auricularia polytricha (pool or library)” gave a Units/ml (putrescine assay) of 0.18 Units/ml.

Consider “transglutaminase preparation (culture broth) of Gymnopilus junonius (pool or library)”, for which the Units/ml (putrescine assay) with α-casein [2] was 0.2 Units/ml.

“transglutaminase preparation (culture broth) of Antrodia serialis (pool or library)” returned a Units/ml (putrescine assay) in the assay with α-casein [2] of 0.8 Units/ml.

With “transglutaminase preparation (culture broth) of Pholiota jahnii (pool or library)”, in the assay with α-casein [2], the Units/ml (putrescine assay) stood at 0.21 Units/ml.

In turn, “transglutaminase preparation (culture broth) of Fusarium redolens (pool or library)” showed a Units/ml (putrescine assay) with α-casein [2] of 0.16 Units/ml.

Consider “transglutaminase preparation (culture broth) of Lyophyllum sp. (pool or library)”, for which, in the assay with α-casein [2], the Units/ml (putrescine assay) was 0.25 Units/ml.

In the case of “transglutaminase preparation (culture broth) of Cochliobolus sativus (pool or library)”, the Units/ml (putrescine assay) with α-casein [2] worked out at 0.09 Units/ml.

With “transglutaminase preparation (culture broth) of Trichoderma harzianum (pool or library)”, the Units/ml (putrescine assay) with α-casein [2] came out at 0.25 Units/ml.

On to “TGase sample of Pseudomonas amyloderamosa (pool or library)”, for which, in the assay with α-casein [1], the Units/ml (putrescine assay) is 0.08 units/ml.

In the assay with α-casein [1], “TGase sample of Streptomyces nigrescens (pool or library)” returned a Units/ml (putrescine assay) of 0.3 units/ml.

“transglutaminase preparation (culture broth) of Cladosporium oxysporum (pool or library)”: the Units/ml (putrescine assay) with α-casein [2] was 0.19 Units/ml.
